The record followed here is the Human Domainome abundance scans (Beltran et al. 2025).

First the molecules themselves.
B1: Ankyrin-3, residues 4094 to 4171; numbered along this chain, Q12955 (parent)
chain: MAIVADHLGLSWTELARELNFSVDEINQIRVENPNSLISQSFMLLKKWVTRDGKNATTDALTSVLTKINRIDIVTLLE

± gives the uncertainty stated by the source.

Variants of B1 are the subject of the data set. In words: abundance fitness (aPCA) (normalised: wild type 0, dead -1); higher = more abundant; growth selection in yeast, the domain comes from the species named. Conditions: Homo sapiens.
As to MAIVADHLGLSWTELARELNFSVDEINQIRVENPNSLISQSFMLLKKWVTRDGKNATTDCLTSVLTKINRIDIVTLLE, the abundance fitness is -0.09 ± 0.13.

As to MAIVADHLGLSWTELARELNFSVDEINQIRVENPNSLISQSFMLLKKWVTRDGKNATTDTLTSVLTKINRIDIVTLLE, the abundance fitness was -0.283 ± 0.14.

MAIVADHLGLSWTELARELNFSVDEINQIRVENPNSLISQSFMLLKKWVTRDGKNATTDDLTSVLTKINRIDIVTLLE: the abundance fitness is -0.627 ± 0.31.

In the case of MAIVADHLGLSWTELARELNFSVDEINQIRVENPNSLISQSFMLLKKWVTRDGKNATTDVLTSVLTKINRIDIVTLLE, the abundance fitness was -0.019 ± 0.039.

In the case of MAIVADHLGLSWTELARELNFSVDEINQIRVENPNSLISQSFMLLKKWVTRDGKNATTDGLTSVLTKINRIDIVTLLE, the abundance fitness was -0.233 ± 0.048.

Regarding MAIVADHLGLSWTELARELNFSVDEINQIRVENPNSLISQSFMLLKKWVTRDGKNATTDELTSVLTKINRIDIVTLLE, the abundance fitness is 0.061 ± 0.075.

Regarding MAIVADHLGLSWTELARELNFSVDEINQIRVENPNSLISQSFMLLKKWVTRDGKNATTDRLTSVLTKINRIDIVTLLE, the abundance fitness was -0.081 ± 0.051.

On to MAIVADHLGLSWTELARELNFSVDEINQIRVENPNSLISQSFMLLKKWVTRDGKNATTDQLTSVLTKINRIDIVTLLE, for which the abundance fitness was -0.021 ± 0.069.

As for MAIVADHLGLSWTELARELNFSVDEINQIRVENPNSLISQSFMLLKKWVTRDGKNATTDNLTSVLTKINRIDIVTLLE, the abundance fitness was found to be 0.219 ± 0.18.

Take MAIVADHLGLSWTELARELNFSVDEINQIRVENPNSLISQSFMLLKKWVTRDGKNATTDFLTSVLTKINRIDIVTLLE: the abundance fitness was -0.086 ± 0.11.

Take MAIVADHLGLSWTELARELNFSVDEINQIRVENPNSLISQSFMLLKKWVTRDGKNATTDWLTSVLTKINRIDIVTLLE: the abundance fitness is -0.458 ± 0.073.

In the case of MAIVADHLGLSWTELARELNFSVDEINQIRVENPNSLISQSFMLLKKWVTRDGKNATTDLLTSVLTKINRIDIVTLLE, the abundance fitness is -0.074 ± 0.054.

With MAIVADHLGLSWTELARELNFSVDEINQIRVENPNSLISQSFMLLKKWVTRDGKNATTDPLTSVLTKINRIDIVTLLE, the abundance fitness is -0.993 ± 0.2.

In the case of MAIVADHLGLSWTELARELNFSVDEINQIRVENPNSLISQSFMLLKKWVTRDGKNATTDSLTSVLTKINRIDIVTLLE, the abundance fitness was -0.134 ± 0.071.

Turning to MAIVADHLGLSWTELARELNFSVDEINQIRVENPNSLISQSFMLLKKWVTRDGKNATTDKLTSVLTKINRIDIVTLLE, the abundance fitness is -0.083 ± 0.19.

Turning to MAIVADHLGLSWTELARELNFSVDEINQIRVENPNSLISQSFMLLKKWVTRDGKNATTDYLTSVLTKINRIDIVTLLE, the abundance fitness is -0.417 ± 0.26.

As to MAIVADHLGLSWTELARELNFSVDEINQIRVENPNSLISQSFMLLKKWVTRDGKNATTDILTSVLTKINRIDIVTLLE, the abundance fitness was -0.28 ± 0.17.

Turning to MAIVADHLGLSWTELARELNFSVDEINQIRVENPNSLISQSFMLLKKWVTRDGKNATTDASTSVLTKINRIDIVTLLE, the abundance fitness is -0.665 ± 0.11.

On to MAIVADHLGLSWTELARELNFSVDEINQIRVENPNSLISQSFMLLKKWVTRDGKNATTDATTSVLTKINRIDIVTLLE, for which the abundance fitness is -1.05 ± 0.25.

Regarding MAIVADHLGLSWTELARELNFSVDEINQIRVENPNSLISQSFMLLKKWVTRDGKNATTDAGTSVLTKINRIDIVTLLE, the abundance fitness was -0.954 ± 0.12.

In the case of MAIVADHLGLSWTELARELNFSVDEINQIRVENPNSLISQSFMLLKKWVTRDGKNATTDAFTSVLTKINRIDIVTLLE, the abundance fitness was -0.823 ± 0.23.

For the variant MAIVADHLGLSWTELARELNFSVDEINQIRVENPNSLISQSFMLLKKWVTRDGKNATTDARTSVLTKINRIDIVTLLE, the abundance fitness was -0.412 ± 0.067.

MAIVADHLGLSWTELARELNFSVDEINQIRVENPNSLISQSFMLLKKWVTRDGKNATTDAITSVLTKINRIDIVTLLE: the abundance fitness is -0.355 ± 0.1.

In the case of MAIVADHLGLSWTELARELNFSVDEINQIRVENPNSLISQSFMLLKKWVTRDGKNATTDAATSVLTKINRIDIVTLLE, the abundance fitness was -0.732 ± 0.11.

With MAIVADHLGLSWTELARELNFSVDEINQIRVENPNSLISQSFMLLKKWVTRDGKNATTDAMTSVLTKINRIDIVTLLE, the abundance fitness was -0.223 ± 0.12.

MAIVADHLGLSWTELARELNFSVDEINQIRVENPNSLISQSFMLLKKWVTRDGKNATTDAPTSVLTKINRIDIVTLLE: the abundance fitness was -0.921 ± 0.15.

For MAIVADHLGLSWTELARELNFSVDEINQIRVENPNSLISQSFMLLKKWVTRDGKNATWDALTSVLTKINRIDIVTLLE, the abundance fitness was -0.123 ± 0.074.

With MAIVADHLGLSWTELARELNFSVDEINQIRVENPNSLISQSFMLLKKWVTRDGKNATSDALTSVLTKINRIDIVTLLE, the abundance fitness was 0.106 ± 0.058.

Consider MAIVADHLGLSWTELARELNFSVDEINQIRVENPNSLISQSFMLLKKWVTRDGKNATVDALTSVLTKINRIDIVTLLE, for which the abundance fitness is 0.05 ± 0.059.

In the case of MAIVADHLGLSWTELARELNFSVDEINQIRVENPNSLISQSFMLLKKWVTRDGKNATTDALMSVLTKINRIDIVTLLE, the abundance fitness came out at 0.06 ± 0.15.

Take MAIVADHLGLSWTELARELNFSVDEINQIRVENPNSLISQSFMLLKKWVTRDGKNATTDALGSVLTKINRIDIVTLLE: the abundance fitness was -0.201 ± 0.058.

Take MAIVADHLGLSWTELARELNFSVDEINQIRVENPNSLISQSFMLLKKWVTRDGKNATTDALISVLTKINRIDIVTLLE: the abundance fitness was -0.386 ± 0.17.

Turning to MAIVADHLGLSWTELARELNFSVDEINQIRVENPNSLISQSFMLLKKWVTRDGKNATTDALKSVLTKINRIDIVTLLE, the abundance fitness was 0.097 ± 0.12.

For MAIVADHLGLSWTELARELNFSVDEINQIRVENPNSLISQSFMLLKKWVTRDGKNATTDALPSVLTKINRIDIVTLLE, the abundance fitness is -0.102 ± 0.089.

As for MAIVADHLGLSWTELARELNFSVDEINQIRVENPNSLISQSFMLLKKWVTRDGKNATTDALCSVLTKINRIDIVTLLE, the abundance fitness is -0.292 ± 0.13.
